Data from publication PMC10924156, “Design, Preclinical Evaluation, and Clinical Translation of ^68Ga-FAPI-LM3, a Heterobivalent Molecule for PET Imaging of Nasopharyngeal Carcinoma” (Journal of Nuclear Medicine, 2024).
Read-outs that look alike come from different tables or passages of the source. Starred links: 1 amine or outer side, 2 acyl side, 3 side chain; linkers in the order of their positions; H or OH if unused. Positions of bridges follow the written chain, without caps; N, C: chain ends. Non-standard residues stand in square brackets, D forms with d. Residues, ends and D or L forms follow the SMILES beside them. *: point of attachment. X1 = CN(CCCN1CCN(*)CC1)c1ccc2nccc(C(=O)NCC(=O)N3CC(F)(F)C[C@H]3C#N)c2c1; DOTA = O=C(O)CN1CCN(CC(=O)O)CCN(CC(=O)*)CCN(CC(=O)O)CC1; dPhe(4-NHCONH2) = NC(=O)Nc1ccc(C[C@@H](N)C(=O)O)cc1; Phe(4-Cl) = N[C@@H](Cc1ccc(Cl)cc1)C(=O)O; Suc = O=C(CCC(=O)[*:2])[*:1]; AEEEA = NCCOCCOCCOCC(=O)O

What was measured:
[1] = human, in vivo
[2] = tested on: HT-1080-FAP–plus–HT-1080-SSTR2 tumor xenograft; assay: Small-animal PET imaging; details: 1 h after injection
Method: (§2) Tumor-bearing mice (3/group) were intravenously injected with approximately 7.4 MBq of ^68Ga-FAPI-LM3, ^68Ga-FAPI-46, or ^68Ga-DOTA-LM3. Subsequent static PET scans were obtained at intervals of 0.5, 1, 2, and 4 h after injection using an Inveon small-animal PET scanner (Siemens). In the blocking experiment, approximately 60 nmol of the unlabeled precursor (FAPI-46, DOTA-LM3, or FAPI-46 plus DOTA-LM3) were simultaneously injected with ^68Ga-FAPI-LM3. The PET images were reconstructed iteratively using 3-dimensional OpMAP 256 (PET reconstruction protocol [.pPetRcn]; Siemens Healthineers AG) and converted to percentage injected dose per gram of tissue (%ID/g) by delineating the regions of interest. For the biodistribution studies, approximately 1.48 MBq of ^68Ga-FAPI-LM3, ^68Ga-FAPI-46, ^68Ga-DOTA-LM3, or ^68Ga-FAPI-LM3 with unlabeled precursor were injected into tumor-bearing mice (3/group), and different groups of mice were euthanized at the scheduled time points after injection.

[3] = in vivo; details: BALB/c nude, mouse, 1.48 MBq, total radioactivity
Method: as §2

[4] = clinical; details: human, in vivo, total radioactivity; for SUV: Median SUVmax; for SUV at 1 h: SUVmax
[5] = in vitro; format: in vitro ADME, bovine; details: serum
Method: Information regarding the reagents, chemicals, high-performance liquid chromatography, liquid chromatography–mass spectrometry, and flow diagram of the synthesis of FAPI-LM3 are provided in the supplemental materials (available at http://jnm.snmjournals.org ([16])). The radiolabeling of FAPI-46, DOTA-LM3, and FAPI-LM3 precursors with ^68Ga was performed following similar procedures. In brief, 25 nmol of the precursor in 1 mL of sodium acetate buffer (0.25 M, pH 8.2–8.3) was allowed to react with 4 mL of ^68Ga solution (1.3 GBq in 0.6 M HCl) at 100°C for 15 min. For clinical imaging, the final product was passed through a 0.22-μm Millipore filter for sterilization in each ^68Ga-FAPI-LM3 preparation process. The stability of ^68Ga-FAPI-LM3 was determined by incubating the product in phosphate-buffered saline and fetal bovine serum at 37°C and analyzing it via radio–high-performance liquid chromatography after 1 and 2 h of incubation.

[6] = tested on: nasopharyngeal carcinoma lesions; details: human, in vivo
[7] = tested on: HT-1080-FAP, HT-1080-SSTR2, HT-1080-FAP–plus–HT-1080-SSTR2, C666-1, U87MG cells; assay: Cellular uptake test and blocking experiments; format: cell-based, human; details: 60 min, with 10 nmol unlabeled FAPI-46, DOTA-LM3 or both; all P < 0.05
Method: (§1) Information on cell resources, transfection, and culture is provided in the supplemental materials. For in vitro studies, the cells were seeded in 24-well plates and cultured in a routine medium until they reached approximately 80% confluence. During the experiment, the medium was replaced with a fetal bovine serum–free medium. […] After a 60-min incubation period, the free tracer was removed using phosphate-buffered saline before measurement. The cells were lysed with 0.5 mL of 1 M NaOH, and radioactivity was subsequently gauged using a γ-counter (Wizard 2480; PerkinElmer Inc.).

[8] = in vivo; details: BALB/c nude, mouse, iv, 7.4 MBq, total radioactivity, tumor uptake (PET)
Method: as §2

[9] = tested on: HT-1080-FAP–plus–HT-1080-SSTR2 xenografts; details: mouse
Method: as §2

[10] = biological target: T1, SSTR2 (Homo sapiens, UniProt P30874); assay: SSTR2 receptor binding assay on HT-1080-SSTR2 cells; details: read-out: half-maximal inhibitory concentration, SSTR2 binding
T1 construct: expressed in transfected cells
Method: as §1

[11] = biological target: T2, human FAP (Homo sapiens, UniProt Q12884); assay: FAP radioligand binding assay on HT-1080-FAP cells; details: read-out: half-maximal inhibitory concentration, FAP binding
T2 construct: expressed in transfected cells
T2 sequence (Q12884 1-760): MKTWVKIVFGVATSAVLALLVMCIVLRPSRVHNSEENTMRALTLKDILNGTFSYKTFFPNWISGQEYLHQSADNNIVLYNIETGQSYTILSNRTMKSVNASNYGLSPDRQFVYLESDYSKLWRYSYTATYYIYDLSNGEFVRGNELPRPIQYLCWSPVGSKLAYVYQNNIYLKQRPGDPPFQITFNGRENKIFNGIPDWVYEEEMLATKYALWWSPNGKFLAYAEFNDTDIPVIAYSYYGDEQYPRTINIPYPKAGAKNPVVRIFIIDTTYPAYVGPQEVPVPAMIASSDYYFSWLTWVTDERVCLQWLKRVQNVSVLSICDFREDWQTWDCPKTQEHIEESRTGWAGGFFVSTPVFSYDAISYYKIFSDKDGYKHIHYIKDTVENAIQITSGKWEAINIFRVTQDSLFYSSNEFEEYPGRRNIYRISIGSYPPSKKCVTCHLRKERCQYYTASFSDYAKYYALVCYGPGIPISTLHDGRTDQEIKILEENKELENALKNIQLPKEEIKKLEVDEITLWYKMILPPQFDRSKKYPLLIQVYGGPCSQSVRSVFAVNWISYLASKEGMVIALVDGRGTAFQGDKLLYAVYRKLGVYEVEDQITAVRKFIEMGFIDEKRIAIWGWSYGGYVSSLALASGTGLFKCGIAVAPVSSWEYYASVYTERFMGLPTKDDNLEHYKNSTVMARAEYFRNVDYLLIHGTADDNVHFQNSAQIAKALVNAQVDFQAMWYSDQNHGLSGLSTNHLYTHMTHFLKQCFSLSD
Method: as §1

[12] = tested on: SSTR2; details: cited from earlier work
Description: Within the domain of nuclear medicine, several targets, such as somatostatin receptor 2 (SSTR2), prostate-specific membrane antigen, and FAP, have emerged as prominent subjects of research ([7],[8]). Epstein–Barr virus latent membrane protein 1 can upregulate SSTR2 expression via the NF-κB pathway ([9]). Both FAP and SSTR2 are important markers in the biology of NPC, as evidenced by the plethora of such PET radiopharmaceuticals, including ^68Ga-FAPI for imaging cancer-associated fibroblasts and ^68Ga-DOTATATE for imaging SSTR2 ([10],[11]).

T1 sequence (P30874 whole entry): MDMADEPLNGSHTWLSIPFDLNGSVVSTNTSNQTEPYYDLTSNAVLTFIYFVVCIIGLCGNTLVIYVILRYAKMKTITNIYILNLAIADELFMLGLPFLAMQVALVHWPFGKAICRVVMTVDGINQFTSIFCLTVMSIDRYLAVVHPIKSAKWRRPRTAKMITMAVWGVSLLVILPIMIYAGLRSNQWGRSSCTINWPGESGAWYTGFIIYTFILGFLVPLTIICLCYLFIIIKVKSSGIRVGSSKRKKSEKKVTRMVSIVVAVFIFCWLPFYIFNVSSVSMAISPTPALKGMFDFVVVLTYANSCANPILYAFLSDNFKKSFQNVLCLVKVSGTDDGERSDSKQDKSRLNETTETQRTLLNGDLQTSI

C[C@@H](O)[C@@H]1NC(=O)[C@H](CCCCN)NC(=O)[C@@H](Cc2ccc(NC(N)=O)cc2)NC(=O)[C@H](Cc2ccc(O)cc2)NC(=O)[C@H](NC(=O)[C@H](Cc2ccc(Cl)cc2)NC(=O)[C@H](CCCCNC(=O)CN2CCN(CC(=O)O)CCN(CC(=O)O)CCN(CC(=O)O)CC2)NC(=O)CCC(=O)NCCOCCOCCOCC(=O)N2CCN(CCCN(C)c3ccc4nccc(C(=O)NCC(=O)N5CC(F)(F)C[C@H]5C#N)c4c3)CC2)CSSC[C@@H](C(=O)N[C@H](Cc2ccc(O)cc2)C(N)=O)NC1=O [^68Ga-FAPI-LM3, metal not drawn] ({X1-AEEEA-Suc}-K(DOTA)[Phe(4-Cl)][dC]Y[dPhe(4-NHCONH2)]KTC[dY]-NH2; disulfide 3-8)
Effective dose equivalent, Mean [1]: 1.20E–03 mSv/MBq | dosimetry, Adrenal glands, Mean [1]: 5.98E–05 mSv/MBq | dosimetry, Brain, Mean [1]: 1.63E–06 mSv/MBq | dosimetry, Breasts, Mean [1]: 3.47E–05 mSv/MBq | dosimetry, Kidneys, Mean [1]: 1.08E–04 mSv/MBq | dosimetry, LLI wall (lower large intestine), Mean [1]: 4.34E–04 mSv/MBq | dosimetry, Liver, Mean [1]: 1.28E–03 mSv/MBq | dosimetry, Lungs, Mean [1]: 7.68E–04 mSv/MBq | dosimetry, Muscle, Mean [1]: 1.57E–05 mSv/MBq | dosimetry, Osteogenic cells, Mean [1]: 4.22E–05 mSv/MBq | dosimetry, Ovaries, Mean [1]: 3.66E–04 mSv/MBq | dosimetry, Pancreas, Mean [1]: 1.23E–04 mSv/MBq | dosimetry, Red marrow, Mean [1]: 7.62E–04 mSv/MBq | dosimetry, Skin, Mean [1]: 6.29E–06 mSv/MBq | dosimetry, Small intestine, Mean [1]: 2.71E–05 mSv/MBq | dosimetry, Spleen, Mean [1]: 1.23E–04 mSv/MBq | dosimetry, Stomach wall, Mean [1]: 4.04E–04 mSv/MBq | dosimetry, Thyroid, Mean [1]: 3.68E–06 mSv/MBq | dosimetry, ULI wall (upper large intestine), Mean [1]: 1.53E–05 mSv/MBq | dosimetry, Urinary bladder wall, Mean [1]: 2.14E–03 mSv/MBq | dosimetry, Uterus, Mean [1]: 2.19E–04 mSv/MBq | blockade of tumor uptake ([2]; unlabeled DOTA-LM3): 62% | blockade of tumor uptake ([2]; unlabeled FAPI-46): 63% | blockade of tumor uptake ([2]; unlabeled FAPI-46 plus DOTA-LM3): 93% | tissue uptake at 1 h [3]: 14.8 ± 0.76 %ID/g | tissue uptake at 4 h [3]: 17.7 ± 2.46 %ID/g | SUV ([4]; Bone mets): 11.2 SUV | SUV ([4]; Distant LN mets): 16.9 SUV | SUV ([4]; Liver mets): 16.5 SUV | SUV ([4]; Peritoneal mets): 13.1 SUV | SUV ([4]; Pleural mets): 17.3 SUV | SUV ([4]; Primary): 13.8 SUV | SUV ([4]; Regional LN mets): 11.4 SUV | SUV ([4]; Total distant metastases): 14.6 SUV | SUV at 1 h ([4]; bone metastases): 10.4 SUV | SUV at 1 h ([4]; distant lymph node metastases): 14.5 SUV | SUV at 1 h ([4]; liver metastases): 14.3 SUV | SUV at 1 h ([4]; regional lymph node metastases): 10.1 SUV | remaining at 2 h [5]: > 99% | physiologic uptake in normal organs [6]: intense physiologic uptake | binding to FAP or SSTR2 with corresponding unlabeled agent [7]: significantly blocked | tissue uptake at 0.5 h [8]: 14 ± 0.47 %ID/g | tissue uptake at 1 h [8]: 14.4 ± 0.67 %ID/g | tissue uptake at 2 h [8]: 14.4 ± 0.68 %ID/g | tissue uptake at 4 h [8]: 13.8 ± 0.68 %ID/g | uptake in blood (ex vivo biodistribution) [9]: high

C[C@@H](O)[C@@H]1NC(=O)[C@H](CCCCN)NC(=O)[C@@H](Cc2ccc(NC(N)=O)cc2)NC(=O)[C@H](Cc2ccc(O)cc2)NC(=O)[C@H](NC(=O)[C@H](Cc2ccc(Cl)cc2)NC(=O)CN2CCN(CC(=O)O)CCN(CC(=O)O)CCN(CC(=O)O)CC2)CSSC[C@@H](C(=O)N[C@H](Cc2ccc(O)cc2)C(N)=O)NC1=O [DOTA-LM3, reference compound] ({DOTA}-[Phe(4-Cl)][dC]Y[dPhe(4-NHCONH2)]KTC[dY]-NH2; disulfide 2-7)
IC50 [10]: 1.3 nM

C[C@@H](O)[C@@H]1NC(=O)[C@H](CCCCN)NC(=O)[C@@H](Cc2ccc(NC(N)=O)cc2)NC(=O)[C@H](Cc2ccc(O)cc2)NC(=O)[C@H](NC(=O)[C@H](Cc2ccc(Cl)cc2)NC(=O)[C@H](CCCCNC(=O)CN2CCN(CC(=O)O)CCN(CC(=O)O)CCN(CC(=O)O)CC2)NC(=O)CCC(=O)NCCOCCOCCOCC(=O)N2CCN(CCCN(C)c3ccc4nccc(C(=O)NCC(=O)N5CC(F)(F)C[C@H]5C#N)c4c3)CC2)CSSC[C@@H](C(=O)N[C@H](Cc2ccc(O)cc2)C(N)=O)NC1=O [FAPI-LM3] ({X1-AEEEA-Suc}-K(DOTA)[Phe(4-Cl)][dC]Y[dPhe(4-NHCONH2)]KTC[dY]-NH2; disulfide 3-8)
IC50 [10]: 13.2 nM | IC50 [11]: 11.7 nM

CN(CCCN1CCN(C(=O)CN2CCN(CC(=O)O)CCN(CC(=O)O)CCN(CC(=O)O)CC2)CC1)c1ccc2nccc(C(=O)NCC(=O)N3CC(F)(F)C[C@H]3C#N)c2c1 [FAPI-46, reference compound]
IC50 ([11]; HT-1080-FAP cells, radioligand 68Ga-FAPI-46, 60 min incubation, 8.16 × 10^−5 to 10^−13 M, n = 3): 4.39 nM

OC[C@H]1OC(O)[C@H]([18F])[C@@H](O)[C@@H]1O (stereo partly shown) [^18F-FDG]
Median SUVmax, Distant LN mets [6]: 8.2 (2.0–9.0) | Median SUVmax, Peritoneal mets [6]: 3.4 (1.5–8.6) | Median SUVmax, Pleural mets [6]: 7.2 (3.7–12.0)

p-Cl-Phe-cyclo(D-Cys-Tyr-D-4-amino-Phe(carbamoyl)-Lys-Thr-Cys)D-Tyr-NH2 (disulfide) [LM3, SSTR2 antagonist peptide]
binding affinity to SSTR2 [12]: high | internalization rate [12]: low
